Assay results: publication PMC12740422

Key:
[1] = target: AcrIE9 (Pseudomonas aeruginosa); test: SEC; preparative SEC of AcrIE9 during purification, HiLoad 26/600 Superdex 75 pg; 300 mM NaCl, 5% glycerol, 2 mM DTT, 20 mM HEPES pH 7.0
[2] = target: AcrIE9 (Pseudomonas aeruginosa); test: SEC; analytical SEC of the pooled dimeric species of AcrIE9 alone, Superdex 200 increase 10/300 GL; 150 mM NaCl, 2 mM DTT, 5% glycerol, 20 mM HEPES pH 7.0

stoichiometry N [1]: 2
stoichiometry N [2]: 2
Substance: AcrIE9 (natural protein)
